Test results published in patent US20260028421A1 (JIANGSU HENGRUI PHARMACEUTICALS, published 2026).
Where two headings read alike, the source gives them in different places. Values belong to the binder of their own block, whether it stands above or below them.

Tests used:
hGUCY2C ECD-His = target: T1, hGUCY2C ECD-His (human, UniProt P25092 24-430); assay: ELISA, antigen on streptavidin plate
T1 construct: also called human GUCY2C protein
Experimental: In this test example, the binding activity of the GUCY2C-CD3 bispecific antibodies for human GUCY2C was detected by ELISA. The specific procedures are as follows:
The plate was coated by adding 100 ng of streptavidin (ACRO #STN-N5116) to the reaction wells and incubated overnight at 4° C. After the blocking with 1% BSA (PBS), 100 ng of hGUCY2C ECD-His was added, and the mixture was incubated at 37° C. for 1 h. After plate washing, the gradiently diluted antibody was added, and the mixture was incubated at 37° C. for 1 h. […] After plate washing, a substrate solution was added, and a stop solution was then added after sufficient color development to stop the reaction. The signal values at […] were read using a microplate reader.

[1] = target: T2, Human GUCY2C protein on cells (HCT116/hGUCY2C, HT-55, T84, LS1034, LS174T) (human, UniProt P25092 24-1073); assay: flow cytometry on HCT116/hGUCY2C cells, R-PE goat anti-human IgG secondary antibody
T2 construct: also called GUCY2C on the cell surface
Experimental: Experiment 1: 1E5 cells resuspended in 1% BSA were added to the reaction wells, and the supernatant was removed after centrifugation. Diluted antibody of the corresponding concentration was added, and the mixture was incubated at room temperature for 30 min and then washed twice with 1% BSA. […] After the plate was washed twice with 10% BSA, fluorescence signals were read using a flow cytometer.

[2] = target: T2, Human GUCY2C protein on cells …; assay: cell-based or functional assay
[3] = target: T2, Human GUCY2C protein on cells …; assay: cell-based or functional assay; remark: listed apart in the source
[4] = target: T2, Human GUCY2C protein on cells …; assay: cell-based or functional assay; remark: listed apart in the source

B3: P3-C7 L7H1-3 (bispecific antibody)
heavy 1: not shown
light 1: DVVMTQTPLSLPVTPGEPASISCRSSQSLVHSNQNTYLHWYLQKPGQSPQLLIYKVSNRFSGVPDRFSGSGSRTDFTLKISRVEAEDVGVYYCSQSTHVPYTFGGGTKVEIKGGGGSGIPPKIECLPIDISIDEGKVLTVASAFTGEPTPEVTWSTGGRKIHSQEQGRFHIENTDDSTTLTIKDVQKQDGGLYTLTLRNEFGSDSATVNIHIRSI
heavy 2: not shown
light 2: not shown
IC50 (nM), killing of LS174T with PBMC [3]: 0.49 nM

B4: 81 L3H1-2 (N103QN106Q) (bispecific antibody)
heavy 1: not shown
light 1: not shown
heavy 2: EVQLVQSGAEVKKPGASVKVSCKASGYTFTDHNMNWVKQAPGQRLEWMGVMNPKFGTINYNQKFKDKATITRDTSASTAYMELSSLRSEDTAVYYCARDNYPNYFDYWGQGTTVTVSSGGGGSSGAPRFLTRPKASVVSVGKDATLSCQIVGNPFPQVSWEKDKQPVTAGVRFRLAQDGDLYRLKILDLQLSDSGQYVCRARNAHGEAFACLGLQVDAEADKTHTCPPCPAPEAAGGPSVFLFPPKPKDTLMISRTPEVTCVVVDVSHEDPEVKFNWYVDGVEVHNAKTKPREEQYNSTYRVVSVLTVLHQDWLNGKEYKCKVSNKALPAPIEKTISKAKGQPREPQVCTLPPSREEMTKNQVSLSCAVKGFYPSDIAVEWESNGQPENNYKTTPPVLDSDGSFFLVSKLTVDKSRWQQGNVFSCSVMHEALHNHYTQKSLSLSPGK
light 2: DIQLTQSPSFLSASPGDRVTITCSASSSVNYMYWYQQKPGSSPKSWIYRTSNLASGVPSRFSGSGSGTEYTLTISSLQPEDFATYYCQQYHDYPPTFGGGTKVEIKGGGGSGIPPKIECLPIDISIDEGKVLTVASAFTGEPTPEVTWSTGGRKIHSQEQGRFHIENTDDSTTLTIKDVQKQDGGLYTLTLRNEFGSDSATVNIHIRSI
IC50 (nM), killing of LS174T with PBMC [4]: 0.16 nM

Further lines, with some results ahead:

EC50 (hGUCY2C ECD-His): 1230 pM
EC50 (read off the curve) [1]: ~1000 pM
B1: 1608-BsAb (bispecific antibody)
chain 1: DIQLTQSPSSLSASVGDRVTITCRASESVDYYGSSLLQWYQQKPGKAPKLLIYAASKLASGVPSRFSGSGSGTDFTLTISSLQPEDFATYYCQQTRKAYTFGQGTKLEIKGGGSGGGGEVQLVESGGGLVQPGGSLRLSCAASGFTFSDYYMTWVRQAPGKGLEWVAFIRNQARGYTSDHNPSVKGRFTISRDNAKNSLYLQMNSLRAEDTAVYYCARDRPSYYVLDYWGQGTTVTVSSGCPPCPAPEAAGAPSVFLFPPKPKDTLMISRTPEVTCVVVDVSHEDPEVKFNWYVDGVEVHNAKTKPREEQYNSTYRVVSVLTVLHQDWLNGKEYKCKVSNKALPAPIEKTISKAKGQPREPQVCTLPPSREEMTKNQVSLWCLVKGFYPSDIAVEWESNGQPENNYKTTPPVLDSDGSFFLYSKLTVDKSRWQQGNVFSCSVMHEALHNHYTQKSLSLSPG
chain 2: DIQMTQSPSSLSASVGDRVTITCTSSQSLFNVRSQKNYLAWYQQKPGKAPKLLIYWASTRESGVPSRFSGSGSGTDFTLTISSLQPEDFATYYCKQSYDLFTFGGGTKVEIKGGGGSGGGGEVQLVESGGGLVQPGGSLRLSCAASGFTFSSYWMHWVRQAPGKGLEWIGEIKPSNELTNVHEKFKDRFTISVDKAKNSAYLQMNSLRAEDTAVYYCTRTITTTEGYWFFDVWGQGTLVTVSSGCPPCPAPEAAGAPSVFLFPPKPKDTLMISRTPEVTCVVVDVSHEDPEVKFNWYVDGVEVHNAKTKPREEQYNSTYRVVSVLTVLHQDWLNGKEYKCKVSNKALPAPIEKTISKAKGQPREPQVYTLPPCREEMTKNQVSLSCAVKGFYPSDIAVEWESNGQPENNYKTTPPVLDSDGSFFLVSKLTVDKSRWQQGNVFSCSVMHEALHNHYTQKSLSLSPG

EC50 (hGUCY2C ECD-His): 60 pM
B2: 146 L1H1-2 (bispecific antibody)
heavy 1: not shown
light 1: not shown
heavy 2: EFQLVQSGAEVKKPGASVKVSCKASGYSFTDYNMNWVRQAPGQRLEWMGLINPKYGTTNYNQKFKGRVTLTVDQSSSTAYMELSSLRSEDTAVYYCARDNYPAWFAYWGQGTTVTVSSGGGGSSGAPRFLTRPKASVVSVGKDATLSCQIVGNPFPQVSWEKDKQPVTAGVRFRLAQDGDLYRLKILDLQLSDSGQYVCRARNAHGEAFACLGLQVDAEADKTHTCPPCPAPEAAGGPSVFLFPPKPKDTLMISRTPEVTCVVVDVSHEDPEVKFNWYVDGVEVHNAKTKPREEQYNSTYRVVSVLTVLHQDWLNGKEYKCKVSNKALPAPIEKTISKAKGQPREPQVCTLPPSREEMTKNQVSLSCAVKGFYPSDIAVEWESNGQPENNYKTTPPVLDSDGSFFLVSKLTVDKSRWQQGNVFSCSVMHEALHNHYTQKSLSLSPGK
light 2: EIVLTQSPATLSLSPGERATLSCSASSSLNYMYWYQQKPGSSPRPWIYRTSQLASGVPARFSGSGSGTDYTLTISSLEPEDFAVYYCQQYHSYPPTFGGGTKVEIKGGGGSGIPPKIECLPIDISIDEGKVLTVASAFTGEPTPEVTWSTGGRKIHSQEQGRFHIENTDDSTTLTIKDVQKQDGGLYTLTLRNEFGSDSATVNIHIRSI
notes: GUCY2C-CD3, Format 2, CD3 arm S107E
IC50 (nM), killing of HT-55(++) with PBMC [2]: 0.56 nM
IC50 (nM), killing of LS174T(+) with PBMC [2]: 0.49 nM
IC50 (nM), killing of LS1034(+++) with PBMC [2]: 0.17 nM
